Assay results published in publication PMC2691842 (Nucleic Acids Research, 2009).

Molecular target: the molecule itself
Assay: AUC

B1: C.Esp1396I controller (C) protein (natural protein, UniProt Q8GGH0 1-79, looked up)
chain: MESFLLSKVSFVIKKIRLEKGMTQEDLAYKSNLDRTYISGIERNSRNLTIKSLELIMKGLEVSDVVFFEMLIKEILKHD
**Q.** Which Kd does the source give for B1 here?
**A.** ~600 nM

**Q.** And the “stoichiometry N” value?
**A.** 2
